Measurements published in the supplement of paper PMC7877785.
± gives the uncertainty stated by the source.

Experiment: self-splicing fitness, log relative to wild type (ln ratio); higher = more splicing; Tetrahymena group I intron in knt gene, E. coli kanamycin selection, DiMSum; sequences stand for … in CUCUCU…GGAGGGAAAAGUUAUCAGGCAUGCACCUGGUAGCUAGUCUUUAAACCAAUAGAUUGCAUCGGUUUAAAAGGCAAGACCGUCAAAUUGCGGGAAAGGGGUCAACAGCCGUUCAGUACCAAGUCUCAGGGGAAACUUUGAGAUGGCCUUGCAAAGGGUAUGGUAAUAAGCUGACGGACAUGGUCCUAACCACGCAGCCAAGUCCUAAGUCAACAGAUCUUCUGUUGAUAUGGAUGCAGUUCACAGACUAAAUGUCGGUCGGGGAAGAUGUAUUCUUCUCAUAAGAUAUAGUCGGACCUCUCCUUAAUGGGAGCUAGCGGAUGAAGUGAUGCAACACUGGAGCCGCUGGGAACUAAUUUGUAUGCGAAAGUAUAUUGAUUAGUUUUGGAGUACUCGUGGUCG
In short: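 Six replicate transformations of E. coli BL21(DE3) with a pET-22b(+) library were grown overnight at 37°C or 30°C. The library randomised all eight P1ex-region intron nucleotides, the intron lying in the knt kanamycin-resistance gene, and plates were LB agar with or without 25 μg/mL kanamycin plus 100 μg/mL carbenicillin, 50 μM IPTG and 0.2% rhamnose. Pooled colonies were amplicon-sequenced on an Illumina HiSeq 2500, and fitness is the DiMSum error-weighted combination of wild-type-normalised replicate fold changes, kanamycin versus none.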

Sequence	self-splicing fitness (ln) (30 °C)	self-splicing fitness (ln) (37 °C)
UAUCAGCAAUAUUACGACGA	-0.537 ± 0.1	-0.425 ± 0.11
UAUCAGCAAUAUUACGACGU	-1.22 ± 0.094	-0.199 ± 0.11
UAUCAGCAAUAUUACGAGAU	-3.27 ± 0.16	-2.21 ± 0.23
UAUCAGCAAUAUUACGAGGG	-2.76 ± 0.18	-1.61 ± 0.19
UAUCAGCAAUAUUACGAUAA	-0.166 ± 0.081	-0.065 ± 0.092
UAUCAGCAAUAUUACGAUUA	0.023 ± 0.072	0.233 ± 0.087
UAUCAGCAAUAUUACGCAGC	-2.17 ± 0.19	-1.53 ± 0.18
UAUCAGCAAUAUUACGCCCA	0.297 ± 0.18	0.008 ± 0.18
UAUCAGCAAUAUUACGCCGU	-1.43 ± 0.24	0.487 ± 0.22
UAUCAGCAAUAUUACGCCUA	0.206 ± 0.11	0.701 ± 0.13
UAUCAGCAAUAUUACGCGAC	-3.07 ± 0.37	-2.3 ± 0.33
UAUCAGCAAUAUUACGCGUC	-2.53 ± 0.11	-0.926 ± 0.12
UAUCAGCAAUAUUACGGAAC	-1.44 ± 0.21	
UAUCAGCAAUAUUACGGAAU	-2.23 ± 0.1	-1.27 ± 0.12
UAUCAGCAAUAUUACGGACC	-2.13 ± 0.13	-1.39 ± 0.15
UAUCAGCAAUAUUACGGAUG	-1.11 ± 0.084	0.0808 ± 0.091
UAUCAGCAAUAUUACGGCAG	-0.148 ± 0.075	0.0916 ± 0.089
UAUCAGCAAUAUUACGGCCC	-2.13 ± 0.28	-1.05 ± 0.39
UAUCAGCAAUAUUACGGCGU	-0.864 ± 0.087	-0.578 ± 0.087
UAUCAGCAAUAUUACGGCUC	-1.86 ± 0.17	-0.563 ± 0.18
UAUCAGCAAUAUUACGGCUU	-1.03 ± 0.075	-0.106 ± 0.11
UAUCAGCAAUAUUACGGGCU	-2.72 ± 0.21	-2.23 ± 0.3
UAUCAGCAAUAUUACGGUCA	-0.435 ± 0.057	0.0755 ± 0.071
UAUCAGCAAUAUUACGUAGG	-2.1 ± 0.097	-1.09 ± 0.088

Sequence	self-splicing fitness (ln) (30 °C)	self-splicing fitness (ln) (37 °C)
UAUCAGCAAUAUUACGUAUC	-2.11 ± 0.08	-0.822 ± 0.096
UAUCAGCAAUAUUACGUAUG	-0.321 ± 0.042	0.475 ± 0.058
UAUCAGCAAUAUUACGUCGA	-1.16 ± 0.1	0.104 ± 0.12
UAUCAGCAAUAUUACGUGCU	-3.64 ± 0.21	-2.1 ± 0.16
UAUCAGCAAUAUUACGUGGA	-1.05 ± 0.098	-0.739 ± 0.099
UAUCAGCAAUAUUACGUGGU	-3.97 ± 0.2	-0.774 ± 0.13
UAUCAGCAAUAUUACGUUGC	-3.53 ± 0.18	-2.37 ± 0.15
UAUGAGCAAUAUUACGAAAG	-2.55 ± 0.39	
UAUGAGCAAUAUUACGAGCA	-2.47 ± 0.17	-2.09 ± 0.31
UAUGAGCAAUAUUACGAGUA	-2.16 ± 0.19	-0.862 ± 0.18
UAUGAGCAAUAUUACGAUCA	-2.24 ± 0.16	-1.27 ± 0.14
UAUGAGCAAUAUUACGAUCU	-1.76 ± 0.23	-2 ± 0.31
UAUGAGCAAUAUUACGAUGA	-1.41 ± 0.12	-1.68 ± 0.16
UAUGAGCAAUAUUACGAUGU	-4.02 ± 0.37	-3.62 ± 0.46
UAUGAGCAAUAUUACGCACA	-0.923 ± 0.21	-0.282 ± 0.21
UAUGAGCAAUAUUACGCGGU	-3.41 ± 0.21	-2.68 ± 0.3
UAUGAGCAAUAUUACGGACU	-3.55 ± 0.4	-2.46 ± 0.26
UAUGAGCAAUAUUACGGAGG	-3.2 ± 0.17	-2.53 ± 0.29
UAUGAGCAAUAUUACGGUAG	-1.79 ± 0.37	-1.88 ± 0.36
UAUGAGCAAUAUUACGUCAC	-4.15 ± 0.46	-2.26 ± 0.49
UAUGAGCAAUAUUACGUUCG	-1.45 ± 0.091	-0.169 ± 0.12
UAUUAGCAAUAUUACGAACA	-0.315 ± 0.16	0.101 ± 0.14
UAUUAGCAAUAUUACGAACG	-0.156 ± 0.12	0.194 ± 0.14
UAUUAGCAAUAUUACGAACU	-1.27 ± 0.11	-0.806 ± 0.13
